{
  "source": "paper PMC12018770",
  "about": "“DEAD‐Box Helicase 6 Blockade in Brain‐Derived Aβ Oligomers From Alzheimer's Disease Patients Attenuates Neurotoxicity” (MedComm, 2025)",
  "molecules": {"B1": {"name": "lecanemab (antibody, chains of the INN, looked up, V domains shown)", "VH": "EVQLVESGGGLVQPGGSLRLSCSASGFTFSSFGMHWVRQAPGKGLEWVAYISSGSSTIYYGDTVKGRFTISRDNAKNSLFLQMSSLRAEDTAVYYCAREGGYYYGRSYYTMDYWGQGTTVTVSS", "VL": "DVVMTQSPLSLPVTPGAPASISCRSSQSIVHSNGNTYLEWYLQKPGQSPKLLIYKVSNRFSGVPDRFSGSGSGTDFTLRISRVEAEDVGIYYCFQGSHVPPTFGPGTKLEIK"}},
  "key": {"Aβ42 oligomers": {"test_system": "Aβ42 oligomers", "test": "Binding of biotin‐labeled short peptides to Aβ42 oligomers", "settings": "biotin-labeled peptide probes; bands at 30 and 10 kDa for binders", "experimental": "We characterized the molecular mechanisms by which DDX6 influences Aβ oligomer neurotoxicity using real‐time quaking‐induced conversion (RT‐QuIC) to determine whether DDX6 promotes the formation of Aβ fibrillar plaques and oligomers. […] Next, we performed dot blotting assays (Figure 7D,E) on the four treatment groups using the A11 antibody. […] We also assessed the cytotoxic effects of the four treatment groups on HT‐22 cell cultures using CCK‐8 assays. […] Specific gray values were calculated using Total Lab 100 (Nonlinear Dynamics, Newcastle upon Tyne, UK).\n(A) Cell counting kit‐8 (CCK‐8) cytotoxicity assay (n = 3). […] Total Lab 100 analysis software was used to calculate the percentage of gray values for 157 polypeptide spots.\nThe Aβ42 peptide was obtained from Abcam (#ab120301, USA). Aβ42 was solubilized using 1 mM hexafluoroisopropanol (#105228; Sigma‐Aldrich, Germany) and evaporated overnight in a desiccator to form a dry film. The film was then dissolved in dimethyl sulfoxide (#D8418; Sigma‐Aldrich) to a concentration of 5 mM, mixed with phosphate‐buffered saline, and incubated for 72 h at 4°C. The GST‐DDX6 protein was synthesized by KMD Bioscience Biotech Co., Ltd. (Tianjin, China). The biotin‐labeled short peptide was synthesized by Hubei Qiangyao Biotechnology Co., Ltd. (Hubei, China)."}, "AD patients": {"test_system": "AD patients", "settings": "cited from earlier work"}},
  "data": [
    {"molecule": "DYCLKRELLMGIFEMGWE [34–45]", "values": [
      {"measurement": "interaction with Aβ42 oligomers", "setting": "Aβ42 oligomers", "result": "all four binding peptides interacted with Aβ oligomers"}
    ]},
    {"molecule": "KPYEINLMEELTLKG [control peptide, reference compound]", "values": [
      {"measurement": "interaction with Aβ42 oligomers", "setting": "Aβ42 oligomers", "result": "did not interact with Aβ oligomers"}
    ]},
    {"molecule": "solanezumab [reference compound]", "values": [
      {"measurement": "efficacy in clinical trials (in words)", "setting": "AD patients; ref [11], [12], [13], [14]", "result": "failed to demonstrate efficacy in improving cognitive function during key clinical trials"}
    ]},
    {"molecule": "B1", "values": [
      {"measurement": "brain shrinkage, share of AD patients", "setting": "AD patients; after 18 months of treatment, ref [16]", "result": "approximately 28%"},
      {"measurement": "brain hemorrhage", "setting": "AD patients; early AD patients, ref [15]", "result": 17.3, "unit": "%"},
      {"measurement": "edema or effusion", "setting": "AD patients; early AD patients, ref [15]", "result": 12.6, "unit": "%"},
      {"measurement": "headaches", "setting": "AD patients; early AD patients, ref [15]", "result": 11.1, "unit": "%"},
      {"measurement": "delay of cognitive decline", "setting": "AD patients; early‐stage AD patients, ref [15]", "result": 27, "unit": "%"},
      {"measurement": "severe side effects (in words)", "setting": "AD patients; some patients, ref [15], [16]", "result": "severe side effects, including brain hemorrhage, brain shrinkage, and even death"}
    ]}
  ]
}
